Results from the supplement of paper PMC10724198.
± gives the standard deviation of the averaged measurements.

Tested on: Saccharomyces cerevisiae
Assay: protein stability index of tFT-peptide fusion (C-terminal peptide) (PSI (0-1 scale)); higher = more stable (slower turnover)
Settings: genetic background: wild type; temperature: 30 C
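Also: PSI is a weighted mean of sequencing reads over stability bins, variants kept only with over 10 reads, mCherry proximal and sfGFP distal, peptide attached via GGGS linker.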

Row | Sequence | protein stability index
1 | PPGSPGPRTPPP | 0.708 ± 0.024
2 | RPELGLCAGDTN | 0.673 ± 0.061
3 | YMLSMIYEIEMM | 0.578 ± 0.04
4 | LPSPSPPPPLLP | 0.743 ± 0.022
5 | PGVRPPSLVPPL | 0.65 ± 0.11
6 | RVETYQKMTSRL | 0.757 ± 0.0092
7 | RWSVLSRSCSSY | 0.729 ± 0.034
8 | VQSWGGRGMVVW | 0.719 ± 0.036
9 | HLPSLLRPPFLL | 0.7038 ± 0.0018
10 | RYSRVALRPRPP | 0.579 ± 0.052
11 | ARESGFGGVLEE | 0.674 ± 0.028
12 | CCLSGGFFLFGL | 0.622 ± 0.062
13 | VFGGSLICVFRV | 0.567 ± 0.025
14 | SHPWLLDCVTTF | 0.706 ± 0.044
15 | PHPPHRLPYPRL | 0.808 ± 0.054
16 | WCGWGGVACLLL | 0.681 ± 0.023
17 | PWPLPLPPSSLP | 0.684 ± 0.018
18 | EKKEKKETTDTE | 0.693 ± 0.023
19 | IRDKTSIRKLEK | 0.677 ± 0.058
20 | RRQPPRDQGTPC | 0.795 ± 0.13
21 | YPPPPLPPPRPP | 0.555 ± 0.015
22 | SARGRTRTADPS | 0.677 ± 0.048
23 | GGREVGQVLWDD | 0.667 ± 0.024
24 | PHRACSSRPLGP | 0.718 ± 0.049
25 | HPKASNSLRFSS | 0.649 ± 0.0072
26 | KKILNKEKSKMA | 0.7181 ± 0.0049

Row | Sequence | protein stability index
27 | NFRTHRHLVARS | 0.762 ± 0.019
28 | PLPAPPPPTLPD | 0.715 ± 0.065
29 | WVPGPLEPSLVL | 0.774 ± 0.0096
30 | GLGLVSWEAGGV | 0.68 ± 0.025
31 | FMRGQCWLRGCE | 0.672 ± 0.016
32 | AELALGIESYLP | 0.683 ± 0.083
33 | WGRCLGWAGPAG | 0.788 ± 0.11
34 | LLPPFPPSSPAF | 0.708 ± 0.036
35 | PCPPPRSPPLAP | 0.74539 ± 0.00027
36 | SRTAFNRGTTRD | 0.681 ± 0.044
37 | RPPPSPPPIPSP | 0.666 ± 0.033
38 | LLRPPARPPHPR | 0.746 ± 0.008
39 | RYPPVQPRRAQR | 0.593 ± 0.031
40 | MSRPSLARLPAS | 0.711 ± 0.011
41 | PLWALVRDVRVG | 0.652 ± 0.033
42 | AQSRTCPMPLPA | 0.719 ± 0.025
43 | LRDTAPEPGPAP | 0.6895 ± 0.0014
44 | HLGIKGFHIFGY | 0.69 ± 0.0071
45 | MAARGTEQGTMP | 0.71 ± 0.061
46 | KGRTEKRGEKRT | 0.717 ± 0.017
47 | QPTCSLRAGPRD | 0.713 ± 0.036
48 | QTDRPPPVSPPR | 0.671 ± 0.047
49 | LLHVPIVFPRLI | 0.62 ± 0.043
50 | GYRSSWRALRVG | 0.564 ± 0.076
51 | WGGGGGRKVSVG | 0.67 ± 0.082
52 | TGHFSTTPPRPH | 0.714 ± 0.077

Row | Sequence | protein stability index
53 | ASTSPSASSSPP | 0.727 ± 0.024
54 | PPLSHPRPILAP | 0.5683 ± 0.0025
55 | LLGASIIGQFYL | 0.758 ± 0.011
56 | GPCPHLGLVVES | 0.703 ± 0.34
57 | GLLAIVLYEYTG | 0.537 ± 0.0083
58 | TWIGRLGAGLPF | 0.779 ± 0.074
59 | TSKGLGSRSAHP | 0.665 ± 0.044
60 | SRLGLLTDGVYA | 0.583 ± 0.025
61 | TGSLLWGCFALL | 0.623 ± 0.054
62 | ASLLGLLIHLGR | 0.6951 ± 0.0059
63 | LFIGFFGIECFI | 0.5798 ± 0.0037
64 | RFGSGYLRRYTH | 0.776 ± 0.011
65 | REGGVLGVVKWS | 0.668 ± 0.02
66 | GLGTRLSAVVLS | 0.625 ± 0.039
67 | VPPRPPLPPRPP | 0.625 ± 0.027
68 | KKKKIKKKKINI | 0.597 ± 0.0067
69 | IKKNHKENKRKE | 0.666 ± 0.016
70 | VYTEFWERQGLL | 0.796 ± 0.051
71 | DNKDRFRMFRVG | 0.695 ± 0.095
72 | RGGGGRGWGSRG | 0.67 ± 0.027
73 | SRLLLPPRGILP | 0.76 ± 0.15
74 | PLPRPPSPLPAL | 0.689 ± 0.039
75 | TPPPPAPPHPPP | 0.62 ± 0.036
76 | PPLPFSSSRFPS | 0.666 ± 0.02
77 | ARPCPRPHVPST | 0.706 ± 0.043
78 | LPCGPRGLTRPP | 0.661 ± 0.0091

Row | Sequence | protein stability index
79 | SSPPHLPRPSSP | 0.748 ± 0.024
80 | TASPAHTPTKTR | 0.608 ± 0.051
81 | LGTGKSGLCVWE | 0.665 ± 0.012
82 | RLPGLTHFLPKI | 0.654 ± 0.038
83 | GGPPTQAKPSPR | 0.647 ± 0.012
84 | AGRVCTRGVNEI | 0.786 ± 0.1
85 | VELCLREKQIQL | 0.6749 ± 0.0039
86 | GSSKVKEGNACR | 0.694 ± 0.057
87 | RGLYPLKVDCQW | 0.753 ± 0.036
88 | TLSLILPQLPPL | 0.643 ± 0.071
89 | CYCTYHDQDSVS | 0.757 ± 0.032
90 | RGEGGRALGVGR | 0.688 ± 0.015
91 | PCSLPLVLSFPH | 0.6846 ± 0.0037
92 | DARRAKPTRRNA | 0.688 ± 0.059
93 | VLWIWRGFRGLG | 0.626 ± 0.011
94 | IKKKQKIPKNAK | 0.678 ± 0.013
95 | DCRATNTTWGLS | 0.697 ± 0.18
96 | FWGPVWNVSWGV | 0.695 ± 0.019
97 | TNSVGCRIGGKQ | 0.646 ± 0.02
98 | DHLTGTPPSPTV | 0.72 ± 0.048
99 | SRGPSLYLCGVR | 0.63 ± 0.00074
100 | AGGGPDGFIRPM | 0.701 ± 0.014
101 | RITYIANNVMLF | 0.652 ± 0.028
102 | PSEPGPPRVSTP | 0.647 ± 0.08
103 | PPPAPPVRPDRS | 0.686 ± 0.048
104 | PLPPPLPPTLPL | 0.72 ± 0.018

Row | Sequence | protein stability index
105 | LREETKREDDKQ | 0.814 ± 0.061
106 | GLCLFPAFSFPF | 0.671 ± 0.089
107 | DSRTLDQNRAKF | 0.824 ± 0.032
108 | QGGREGSRQRRV | 0.629 ± 0.013
109 | ASPPAYGPPPPP | 0.6806 ± 0.0035
110 | PPPPLPHPPAAS | 0.7 ± 0.02
111 | PPPPPPSLPLPP | 0.6709 ± 0.0044
112 | LLWCPLRSIGLS | 0.696 ± 0.044
113 | LAPLALPLPPPT | 0.832 ± 0.18
114 | LLSCVRSHPDAP | 0.702 ± 0.073
115 | FLPWPSYPTPGP | 0.784 ± 0.018
116 | PTTTPPPTPITG | 0.76 ± 0.065
117 | DLMLSVDLNIDG | 0.699 ± 0.0084
118 | PLLSPPSPPPPT | 0.713 ± 0.017
119 | VGGACGLSGGLV | 0.652 ± 0.062
120 | GATGGACGVWAG | 0.668 ± 0.048
121 | ASPCTVAQDPRT | 0.621 ± 0.023
122 | RFSPRSLIFFPS | 0.612 ± 0.03
123 | RVGRGGGRETRG | 0.699 ± 0.031
124 | KFSVVMFLDGSW | 0.697 ± 0.084
125 | RSSTYGIMYSYR | 0.715 ± 0.035
126 | GDTKKRTQGRGV | 0.653 ± 0.011
127 | PFFFLWSLYFFL | 0.5096 ± 0.0038
128 | PPHCSSPTPARH | 0.694 ± 0.028
129 | ATACSIMISNAV | 0.662 ± 0.029
130 | RSRSELRVFCTS | 0.556 ± 0.011

Row | Sequence | protein stability index
131 | PVSCPPPPLHMS | 0.661 ± 0.013
132 | VWRVGRARGQMG | 0.6953 ± 0.0017
133 | GGGGGGGSRTGA | 0.691 ± 0.037
134 | GGAPMRPGGGTC | 0.678 ± 0.065
135 | LLFTFLPFRTVR | 0.709 ± 0.044
136 | LYPTISCSARDG | 0.699 ± 0.013
137 | PPLYFFSPMAFF | 0.783 ± 0.032
138 | TKIKETTKKKQL | 0.522 ± 0.059
139 | PFSPPLTPTFFP | 0.7052 ± 0.0057
140 | LPPFPRPPPPSP | 0.719 ± 0.029
141 | SGGPDCLSMSGL | 0.694 ± 0.025
142 | PPPPSSPPHLPF | 0.651 ± 0.018
143 | PPPPPHAEAVSR | 0.59 ± 0.029
144 | PPSSSPPHTPFP | 0.6557 ± 0.0011
145 | HFFSFLACFVDL | 0.632 ± 0.054
146 | CSWLVEWVLSFS | 0.5417 ± 0.0041
147 | RAPPKTTPHPAE | 0.693 ± 0.052
148 | PQPPPRSPPSYL | 0.75 ± 0.049
149 | QKNKNTEKINTK | 0.663 ± 0.018
150 | PSFFLLRVFVPS | 0.524 ± 0.0061
151 | AIERCCTSRRRR | 0.701 ± 0.041
152 | GGRVAGSMGVGG | 0.68 ± 0.02
153 | QREKGEKERTET | 0.6783 ± 0.004
154 | RIYDNKNTGIYH | 0.707 ± 0.022
155 | CGIAGVKSLGLC | 0.717 ± 0.039
156 | LFPFPSPLPPPL | 0.766 ± 0.0092

Row | Sequence | protein stability index
157 | SPSPPLAPPSPS | 0.671 ± 0.0073
158 | LPRFAPPNPALP | 0.658 ± 0.071
159 | RYTKYKSYPYDI | 0.6897 ± 0.0023
160 | KELPAGRQSEPD | 0.636 ± 0.034
161 | GSSRRMGEGVEM | 0.69 ± 0.02
162 | RVCFVTNLVDVT | 0.721 ± 0.096
163 | SYMCRCALDCFL | 0.643 ± 0.035
164 | SWCDKGSCLVDE | 0.695 ± 0.07
165 | WGEKTRKVQGCG | 0.695 ± 0.066
166 | RRVGSGGLEGIG | 0.528 ± 0.019
167 | LPASLPPPPPPY | 0.756 ± 0.058
168 | WSCTPRTPPPPR | 0.7925 ± 0.002
169 | LLFLLGTLYHPY | 0.635 ± 0.11
170 | IDSNLCFVKSYT | 0.618 ± 0.064
171 | PFWTPASPPSFY | 0.748 ± 0.014
172 | SSTPYRHLLTPH | 0.723 ± 0.013
173 | PSPPSHRFPAIP | 0.697 ± 0.0081
174 | THPPLTSRSSPP | 0.654 ± 0.044
175 | IWPGASLALLTS | 0.606 ± 0.011
176 | FLSGVGSHLTGP | 0.653 ± 0.019
177 | TWSLYFSCRLFW | 0.54 ± 0.055
178 | WGRCVRGGRPWG | 0.567 ± 0.021
179 | RVMGRHIGRPRE | 0.702 ± 0.015
180 | HPPSLPSAPSLP | 0.694 ± 0.029
181 | PSPLLPAPRRPP | 0.684 ± 0.085
182 | LPSSSPHPADPS | 0.643 ± 0.08

Row | Sequence | protein stability index
183 | ARIALGLSALVL | 0.641 ± 0.05
184 | RPASPRSPIVSR | 0.726 ± 0.024
185 | ICLMRETAGRED | 0.757 ± 0.2
186 | QGSRRPRSVVWG | 0.708 ± 0.038
187 | RPPLSPLLYPPP | 0.7115 ± 0.0022
188 | ISYIGCCKIVLT | 0.553 ± 0.0086
189 | SRLPSYVSACSF | 0.671 ± 0.011
190 | PRIGPAPLPRLS | 0.714 ± 0.043
191 | PLYLSFSFCPSF | 0.611 ± 0.013
192 | RPPFPLRTSPLV | 0.694 ± 0.037
193 | GHWTRRPSVKGK | 0.643 ± 0.0092
194 | HILDDHVRISNA | 0.685 ± 0.0096
195 | QPPPPPPRPPPP | 0.504 ± 0.016
196 | QLGGLHIPHPLR | 0.899 ± 0.028
197 | CHPFQAAVPIYL | 0.581 ± 0.12
198 | WLRPRSFSVVAT | 0.52821 ± 0.00016
199 | PPPHTPLPPLAP | 0.744 ± 0.05
200 | VLLLRPTPPLFH | 0.663 ± 0.046
201 | QNKTQKSKKKKS | 0.734 ± 0.038
202 | PPPPRPPPLPTR | 0.703 ± 0.021
